Data taken from the DeepSol protein solubility set.

Experiment: soluble on expression in E. coli; label from the status in PepcDB or PDB records

Sequence | soluble on expression in E. coli
MGKKPISILLMGTDTGALGRSYKGRTDSMMVVTINPKTKKTTITSIPRDLGVTIPGYESKSPSKINAAYAFGQAGTAIKTVQQVFNVPIDFYVLVNMGGMEKVVDEAGGVDITPTLSFTYDGYTFTKGVKTHMNGKKALAYSRMRYDDPQNDYGRQTRQRAVLTAIISKSSSVSSLLNKDFIDSISNETKTDFTFNDLVDLAKNYRSSTGSIEETHAQGDGQMVNGQSMEIVSNTELQRVTNFIRNGLSLEHEKTGTAALSASSANTSDSSVEAANINAGNLEHHHHHH | soluble
MGKNLSLRQDDAQHALSANTSSAYNSVYDFLRYHDRGDGLTVNGKTSYSIDQAAAQITRENVSWNGTNVFGKSANLTFKFLQSVSSIPSGDTGFVKFNAEQIEQAKLSLQSWSDVANLTFTEVTGNKSANITFGNYTRDASGNLDYGTQAYAYYPGNYQGAGSSWYNYNQSNIRNPGSEEYGRQTFTHEIGHALGLAHPGEYNAGEGDPSYNDAVYAEDSYQFSIMSFWGENETGADYNGHYGGAPMIDDIAAIQRLYGANMTTRTGDSVYGFNSNTDRDFYTATDSSKALIFSVWDAGGTDTFDFSGYSNNQRINLNEGSFSDVGGLKGNVSIAHGVTIENAIGGSGNDILVGNSADNILQGGAGNDVLYGGAGADTLYGGAGRDTFVYGSGQDSTVAAYDWIADFQKGIDKIDLSAFRNEGQLSFVQDQFTGKGQEVMLQWDAANSITNLWLHEAGHSSVDFLVRIVGQAAQSDIIV | soluble
MGKRIAFWFEFASTYSYLSAMRIERAAADLGVTIAWEPFLLGPIFAAQGWTSSPFNLFPAKGRYMWRDMERLCARQGLPLTRPDPFPQNGLPAARLAMVAREMGHIAPFVRAVYAAQFGRGLVISDPQVLAECWAEAGLPPEAMEQAKSPEIKAALFAQGERAAALDLFGAPSFVVGEEVFWGDDRLDQALALAAQS | soluble
MGKSLTEIAEELKGNDKKVQLIYAFNGTGKTRLSREFKNLIAPTSSEEPDGEPTRRKFLYYNAFTEDLFFWDNDLLANEAPRLKIQKNSFTDWLLRDNGLDGAVIKNFQYYTDDKLTPDFNDDFSEIAFYFARGNDEQIENIKISKGEESNFIWSIFYVLIRQVIAELNIPEDSEEGRSTDQFDDLEYIFIDDPVSSLDENHLIQQAVDLADLIKLSKPRLKFIITTHNVLFYNVLYNELKKLEKEKKSYLLLKNEDGSFDILEKQGDSNKSFSYHLHLKGVIEKAIENQQVERFHFMLLRNLYEKTANFLGYKQRSDILPEDSRRNYFQRIINFTSHSTLSNEAFAEPTPQEQETVKLLLQHLLDNYNFFQDDEQRDKP | not soluble
MGLELRAIQSPIFSEPFDFTFHAQAFTLLVGSSGSGKSSLFQMIAQVSSLPYSGQVLIDGSEVSQLSIVERVQTVGILLQNPNHQFTMESLFEELVFTMENIGYHLQEIDSKIAEVVQQCRCKDILHRLIHHLSGGEKQKAALAVLFAMNPRVYLLDEPFASIDRKSRIEILEILKELVYDGKTVILCDHDLSDYKAYIDHMVELRDGKLREVFQIPSYEMTQVASKEVASSPELFHMNRVTGELGNRPLFSIADFTFYQGISCILGDNGVGKSTLFRSILQFQKYKGSITWKGSVLKKKKSLYRDLTGVVQEAEKQFIRVSLREELQLDGPDSERNQRIFQALRYFDLEQAVDKSPYQLSGGQQKILQLLTILTSKASVILLDEPFAGLDDRACHYFCKWIVEERNQGRSFLLISHRLDPLISVVDYWIEMTSQGLRHVKEVTITKPLTSQSSNTQGEVR | not soluble
MGLKDQAVTWRRYFHQFPELSDKEFKTTQKIKDILTEHHIRILDLPLATGLVAEVGQGLSCIAVRADIDALPIQELVEQDFKSENEGVMHACGHDIHMASILATAVKLKEIEGTLTGRVKFIFQSAEELGHGAFKIIETHALKDVQAVLGFHNDPSRSVGTFAIKTGAITSAVDRFEFHIKGVGGHAAKPEQCNDPVIVLAQLINSIQSIVSRNLSAFDEAVVTIGQISCGNTWNVIADHAYVQGTVRSFDPVVRKLVETRLQDIADGLAQAYNMKINLNYTHLPGAVMNDEALTHKAIAVAQHVGYKVEMMEQPLTIGEDFSGYSQHFPSVFALIGSHSEYDLHHPQYKPDERILEKVPEYFVEFVKRLLHE | not soluble
MGLLIDGVWHDQWYDTKSTGGSFKRQDAKFRNWITHDGSAGPSGTGGFTPDSGRYHLYISHACPWAHRTMIFRTLKGLEDHITISAVHPDMLGEGWTFEPDDNGATGDTLYNSAFARDIYTRADPRFTGRVTVPILWDKQRETIVSNESSEIIRMFNAAFNGLTGNSDDYWPEPLRDAIAPVNERIYDTFNNGVYKAGFATTQQAYDAAIVPLFDTLDWLEERLSHNRYLMGDQLTEADWRLFTTLVRFDPVYHLHFKCNRKRIVDYPNLWGYTRELYQTPGVADTVNFDHIVRHYHYSHETINPNRIIPINPVLDFHRPHGRGLEHHHHHH | soluble
MGLSNRAIIIDGKNHLLGRLASIVAKKLLQGDKVVVLRAEEIVISGNFHRSKLKYMSFLRKRCNINPARGAFHYRAPGKIFWRTVRGMLPHKTNRGNEALKNLRAYEGVPAKYQKTKSLHAPSASRFRLQPRRKFCVVGRLSHEVGWQFQDVVAKLEAKRKVKGAAYFEQKKKMDKLAVQAKKNAAPKIAQYQKIIEALGYN | not soluble
MGNASMTKTDIATRVHNHTWKLDPIVRSLIDTDFYKLLMLQMIWKLYPEVDATFSLINRTKTVRLAEEIDEMELREQLDHARTLRLSKKENIWLAGNTFYGRSQIFEPEFLSWLSSYQLPEYELFKRDGQYELNFHGRWMDTTLWEIPALSIINELRSRSAMRSLGYFTLDVLYARAKAKMWEKVERLRELPGLRISDFGTRRRHSFLWQRWCVEALKEGIGPAFTGTSNVLLAMDSDLEAVGTNAHELPMVVAALAQTNEELAAAPYQVLKDWNRLYGGNLLIVLPDAFGTAAFLRNAPEWVADWTGFRPDSAPPIEGGEKIIEWWRKMGRDPRTKMLIFSDGLDVDAIVDTYRHFEGRVRMSFGWGTNLTNDFAGCAPKTIASLKPISIVCKVSDANGRPAVKLSDNPQKATGDPAEVERYLKFFGEEDHKEQKVLVLEHHHHHH | not soluble
MGNKQTIFTEEQLDNYQDCTFFNKKDILKLHSRFYELAPNLVPMDYRKSPIVHVPMSLIIQMPELRENPFKERIVAAFSEDGEGNLTFNDFVDMFSVLCESAPRELKANYAFKIYDFNTDNFICKEDLELTLARLTKSELDEEEVVLVCDKVIEEADLDGDGKLGFADFEDMIAKAPDFLSTFHIRI | not soluble
MGNNSSAQSSTPSLPIDSTFNLPSPLPSWPSGEGFAKGRIDLGGLEVSQVDTFNKVWTVYEGGQDNLGATFFEPSSVPEGFSILGFYAQPNNRKLFGWTLVGKDLSGDSLRPPVDYLLLWSGKSTKVENNKVETGYFWQPVPPDGYNAVGLIVTTSDEKPPLDKIRCVRSDLTDQSEPDALIWETNGFSVSSSKPVNRGTQASGVSVGTFFSNSPNPALPCLKNNNFDFSCMPSKPQIDALFQTYAPWIYFHKDEKYLPSSVNWFFSNGALLYKKGDESNPVPVEPNGLNLPQGEFNDGLYWLDLPVASDARKRVQCGDLQSMEVYLHIKPVFGGTFTDIAVWMFYPFNGPSRAKLKAASIPLGRIGEHIGDWEHFTLRISNFSGKLHRMYLSQHSGGSWADASEIEFQGGGNKPVAYASLNGHAMYSKPGLVLQGKDNVGIRNDTGKSEKVIDTAVRFRVVAAEYMRGELEEPAWLNYMRHWGPKIDYGHENEIRGVEKIMVGESLKTTFRSAIKGLPNEVFGEEGPTGPKLKRNWLGDEV | not soluble
MGNSLHQIKCCTSFIHCQNAAVDAPSIAKTLADYLYPAFFHQDLPAPLKISVTGCPNQCGGGVEADIGISGYFATVPRVDDAGLMAANIDFGHLISGCPVGAIRPRQVEGGTTVVINAERCIRCTSCIQVAPEGIKPGPERFVAIAVGGHGGNNRRGPEMAAVVFSRVPARPLDYAAICERVQRIIACWRDRGKRGERLAGFLERLEHHHHHH | not soluble
MGNTAITRVQMEATKSVPVDHAKYMSGSGAPPPECPMHQKHGDAKSASAVPPHPKMQAASECPVQHDNSDVNPLNMMPPANQQPAADQPFPLPTDRQTSTIPKVTEDGSVQFWQYPSQQMFWNAMLRKGWRWKTEDVSQKDMGDIIRIHNANNEQAWQEVLKWEALHAKECGNPRLKSFGGKAKDFSPRARFRSWLGYELPFDRHDWIVDRCGKDVRYVIDYYDGGLVDKDYRFALLDVRPAMDSVDNVWDRMRVAYMRWKYELFEKFGSADGGKVTAGSDLEHHHHHH | not soluble
MGQRKYGGPPPGWDSTPPERGCEIFIGKLPRDLFEDELIPLCEKIGKIYEMRLMMDFNGNNRGYAFVTFSNKQEAKNAIKQLNNYEIRTGRLLGVCASVDNCRLFVGGIPKTKKREEILSEMKKVTEGVVDVIVYPSAADKTKNRGFAFVEYESHRAAAMARRRLLPGRIQLWGHPIAVDWAEPEVEVDEDTMSSVKILYVRNLMLSTSEEMIEKEFNSIKPGAVERVKKIRDYAFVHFSNREDAVEAMKALNGKVLDGSPIEVTLAKPVDKDSYVRYTRGTGGRNTMLQGEYTYPLSHVYDTTTTYLGAPVFYTPQAYAAIPSLHFPATKGHLSNRALIRTPSVRGNTS | soluble
MGQRYKRMSSTDTNEYMSDNLAKAISNPLFPALDSMLRAGRHISTEDLDNHALLSDFELELSSFYQRYNTELVKAPEGFFYLRPRSTSLIGRSVLSELDMLVGKVLCFLYLSPERLAHEGIFTNQELYDELLALADEKKLMKLVTNRATGSDLDKEKLFEKVRTSLRRLRRLGMIINIGETGKFSISEAVFRFGADVRVGDDIREAQLRLIRDGEAVVHTKEPSQGSLLSEEDQEEQAQEEMTEEGEALEHHHHHH | soluble
MGRQGSLALLLSIILIGETIANEYDGLSSHQSHQSTVTSAPIHVSEQQTSRNRPYNQPQLQQKPSVLTQSYQVLPESRNYYQYPQYLPTHTGYSNIQTVGQPYQMYGSAPGSNVVSGGNSESYGYNQQAPVPTVAPAPVHFSERQRSYSAAPTPPSPFSETRERENNNVRAPGHHAPAQQGHRSPSPPPSPFMINPKPVLSYGAANPFLANLPPAQGVYGAPIDSSHRGYDGFSLSAPAPPSGSSASVDDTWEALEASLDANTRRRHRIF | not soluble
MGSDKIHHHHHHAAQARLDKARAMYENNEFFGAKNEIDSIRALYPKEVKVLKQGLTLMRQVEVKEAERNIAFCDSLLPIKLEEVEGLKKGFAFEKDSVYEEIGNYIWKQQTIERNVQRCYVRCGVNEEGEMYLASVYYGGRPIEHTGIKLSLKDGQFAETASIPYDGGLNYRFKDMGSTTEVVTYKGEHCVDAVKFIYDNEKERIKVEYTGGKPYIIYMADADKKAIVNTFNLATVLSDIKSMNTLKEKSEKKIAYLKNKLEE | not soluble
MGSDKIHHHHHHAAVGEKLGWPQQKISKIESGEQKRIPAAELDALLEVYGVTDPQIRESLHECARLAKERGWWTRYKDAFPSGLPDFESEASVIRSYECQVIPGILQTPDYADAIFRAYKLREDKEIDRLVKARMERQNILNRVDPPHFMTIIDEAALHRLVGSVEVMRTQLRHLTHMASRHNIDIYVLPFKAGAHAATTGSFMIMDFPDPMDNSIVYVDTPTSILYIEDEEEVREFNVMFSRTQSAALSPTLSMDLVKKVIKSLEE | not soluble
MGSDKIHHHHHHACNTSPREPKAMEANDGSVTTVESNGNKLTVCDLSAVKDTIEVPLSEFVEDCRIVRFETSEEAYFKAWFINATDKHIGIRQGNQDVFKLFDRDGKFLYNVGSVGSGPGEYDTTLYDECIDEKNGHIFFTPFVGKRIMMYDINGQWIKDIPLPMQINKAKIWVNEDGSLSVVHMPFEEGEPLAFRVDTEGNILNQIPATAATKVMNFDGEVFSYRNCGDFDFFHTGIDTLFTYDPAGNKLLPKFTMTFPNMNEKPIHLYYRLPHHFIVTYWGNKGEGGGDVLVDTEKNASSYFRLVNDFYGNLPIPAPGHSFYRGYFIQSLEPGQLIEKIEKQIASGKCSGQDEQKLKELAATLTENDNNVLFIGKVKK | not soluble
